# Source: the supplement of paper PMC10567573
# B1: RAB11A (parent)
# chain: AVPTDEARAFAEKNGLSFIETSAL
# Variants of: B1
# Assay: protein stability index of a GFP-peptide fusion (GPS, HEK-293T) (PSI 1-6); higher = more stable
# Settings: c terminus: a fixed tail appended
# 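Further: lentivirally expressed fusions sorted by FACS into six bins by GFP to DsRed ratio, PSI derived from sequencing read proportions per bin multiplied by bin number.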
row,Variant,protein stability index
1,AVPTDENRAFAEKNGLSFIETSAL,2.33
2,AVPTDEDRAFAEKNGLSFIETSAL,2.99
3,AVPTDEIRAFAEKNGLSFIETSAL,2.21
4,AVPTDEERAFAEKNGLSFIETSAL,3.29
5,AVPTDECRAFAEKNGLSFIETSAL,1.83
6,AVPTDEHRAFAEKNGLSFIETSAL,2.43
7,AVPTDEKRAFAEKNGLSFIETSAL,2.19
8,AVPTDEWRAFAEKNGLSFIETSAL,2.09
9,AVPTDEGRAFAEKNGLSFIETSAL,2.17
10,AVPTDEQRAFAEKNGLSFIETSAL,2.87
11,AVPTDEPRAFAEKNGLSFIETSAL,2.04
12,AVPTDEFRAFAEKNGLSFIETSAL,2.48
13,AVPTDETRAFAEKNGLSFIETSAL,2.57
14,AVPTDERRAFAEKNGLSFIETSAL,2.46
15,AVPTDEVRAFAEKNGLSFIETSAL,2.25
16,AVPTDEYRAFAEKNGLSFIETSAL,2.45
17,AVPTDEMRAFAEKNGLSFIETSAL,2.05
18,AVPTDESRAFAEKNGLSFIETSAL,2.68
19,AVPTDELRAFAEKNGLSFIETSAL,2.28
20,AVPTDEARAFPEKNGLSFIETSAL,2.33
21,AVPTDEARAFSEKNGLSFIETSAL,2.63
22,AVPTDEARAFVEKNGLSFIETSAL,2.65
23,AVPTDEARAFLEKNGLSFIETSAL,2.32
24,AVPTDEARAFTEKNGLSFIETSAL,2.31

row,Variant,protein stability index
1,AVPTDEARAFIEKNGLSFIETSAL,1.91
2,AVPTDEARAFMEKNGLSFIETSAL,2.24
3,AVPTDEARAFFEKNGLSFIETSAL,1.94
4,AVPTDEARAFCEKNGLSFIETSAL,2.32
5,AVPTDEARAFGEKNGLSFIETSAL,1.97
6,AVPTDEARAFKEKNGLSFIETSAL,1.96
7,AVPTDEARAFREKNGLSFIETSAL,2.12
8,AVPTDEARAFYEKNGLSFIETSAL,2.2
9,AVPTDEARAFQEKNGLSFIETSAL,2.21
10,AVPTDEARAFWEKNGLSFIETSAL,1.9
11,AVPTDEARAFNEKNGLSFIETSAL,2.5
12,AVPTDEARAFDEKNGLSFIETSAL,3.24
13,AVPTDEARAFHEKNGLSFIETSAL,2.64
14,AVPTDEARAFEEKNGLSFIETSAL,2.76
15,AVPTLEARAFAEKNGLSFIETSAL,2.41
16,AVPTSEARAFAEKNGLSFIETSAL,2.19
17,AVPTREARAFAEKNGLSFIETSAL,1.99
18,AVPTKEARAFAEKNGLSFIETSAL,1.79
19,AVPTIEARAFAEKNGLSFIETSAL,2.04
20,AVPTYEARAFAEKNGLSFIETSAL,2.15
21,AVPTQEARAFAEKNGLSFIETSAL,2.07
22,AVPTNEARAFAEKNGLSFIETSAL,1.95
23,AVPTAEARAFAEKNGLSFIETSAL,1.77
24,AVPTFEARAFAEKNGLSFIETSAL,1.92

row,Variant,protein stability index
1,AVPTMEARAFAEKNGLSFIETSAL,1.72
2,AVPTWEARAFAEKNGLSFIETSAL,1.49
3,AVPTPEARAFAEKNGLSFIETSAL,2.23
4,AVPTCEARAFAEKNGLSFIETSAL,1.89
5,AVPTEEARAFAEKNGLSFIETSAL,2.35
6,AVPTGEARAFAEKNGLSFIETSAL,1.94
7,AVPTHEARAFAEKNGLSFIETSAL,2.33
8,AVPTVEARAFAEKNGLSFIETSAL,2.05
9,AVPTTEARAFAEKNGLSFIETSAL,2.52
10,AVPTDEARWFAEKNGLSFIETSAL,2.27
11,AVPTDEARRFAEKNGLSFIETSAL,1.96
12,AVPTDEARYFAEKNGLSFIETSAL,2.11
13,AVPTDEARQFAEKNGLSFIETSAL,2.62
14,AVPTDEARGFAEKNGLSFIETSAL,2.57
15,AVPTDEARKFAEKNGLSFIETSAL,2.34
16,AVPTDEARMFAEKNGLSFIETSAL,2.35
17,AVPTDEARCFAEKNGLSFIETSAL,1.82
18,AVPTDEARSFAEKNGLSFIETSAL,2.35
19,AVPTDEARDFAEKNGLSFIETSAL,2.78
20,AVPTDEARFFAEKNGLSFIETSAL,2.1
21,AVPTDEARIFAEKNGLSFIETSAL,2.33
22,AVPTDEAREFAEKNGLSFIETSAL,3.13
23,AVPTDEARHFAEKNGLSFIETSAL,1.97
24,AVPTDEARTFAEKNGLSFIETSAL,2.96

row,Variant,protein stability index
1,AVPTDEARLFAEKNGLSFIETSAL,2.45
2,AVPTDEARPFAEKNGLSFIETSAL,2.08
3,AVPTDEARVFAEKNGLSFIETSAL,2.45
4,AVPTDEARNFAEKNGLSFIETSAL,2.46
5,AVPTDEAYAFAEKNGLSFIETSAL,1.99
6,AVPTDEAPAFAEKNGLSFIETSAL,1.86
7,AVPTDEANAFAEKNGLSFIETSAL,2.64
8,AVPTDEASAFAEKNGLSFIETSAL,2.68
9,AVPTDEALAFAEKNGLSFIETSAL,2.16
10,AVPTDEATAFAEKNGLSFIETSAL,2.84
11,AVPTDEAIAFAEKNGLSFIETSAL,2.59
12,AVPTDEADAFAEKNGLSFIETSAL,2.82
13,AVPTDEAFAFAEKNGLSFIETSAL,1.97
14,AVPTDEAMAFAEKNGLSFIETSAL,2.4
15,AVPTDEAGAFAEKNGLSFIETSAL,2.63
16,AVPTDEAKAFAEKNGLSFIETSAL,2.61
17,AVPTDEAQAFAEKNGLSFIETSAL,2.66
18,AVPTDEAAAFAEKNGLSFIETSAL,2.64
19,AVPTDEAWAFAEKNGLSFIETSAL,2.46
20,AVPTDEACAFAEKNGLSFIETSAL,2.32
21,AVPTDEAHAFAEKNGLSFIETSAL,2.7
22,AVPTDEAVAFAEKNGLSFIETSAL,2.72
23,AVPTDEAEAFAEKNGLSFIETSAL,3.25
24,AVPTDEARAFAEKGGLSFIETSAL,2.15

row,Variant,protein stability index
1,AVPTDEARAFAEKFGLSFIETSAL,2.25
2,AVPTDEARAFAEKAGLSFIETSAL,1.96
3,AVPTDEARAFAEKLGLSFIETSAL,2.03
4,AVPTDEARAFAEKDGLSFIETSAL,3.62
5,AVPTDEARAFAEKCGLSFIETSAL,1.71
6,AVPTDEARAFAEKIGLSFIETSAL,2.13
7,AVPTDEARAFAEKMGLSFIETSAL,1.92
8,AVPTDEARAFAEKHGLSFIETSAL,2.36
9,AVPTDEARAFAEKEGLSFIETSAL,3.54
10,AVPTDEARAFAEKKGLSFIETSAL,2.46
11,AVPTDEARAQAEKNGLSFIETSAL,3.08
12,AVPTDEARAKAEKNGLSFIETSAL,2.37
13,AVPTDEARAEAEKNGLSFIETSAL,3.81
14,AVPTDEARATAEKNGLSFIETSAL,2.91
15,AVPTDEARACAEKNGLSFIETSAL,2.43
16,AVPTDEARAYAEKNGLSFIETSAL,2.71
17,AVPTDEARANAEKNGLSFIETSAL,2.9
18,AVPTDEARAIAEKNGLSFIETSAL,2.44
19,AVPTDEARAMAEKNGLSFIETSAL,2.27
20,AVPTDEARALAEKNGLSFIETSAL,2.33
21,AVPTDEARADAEKNGLSFIETSAL,3.86
22,AVPTDEARAAAEKNGLSFIETSAL,2.76
23,AVPTDEARAWAEKNGLSFIETSAL,2.36
24,AVPTDEARARAEKNGLSFIETSAL,2.49

row,Variant,protein stability index
1,AVPTDEARAVAEKNGLSFIETSAL,2.46
2,AVPTDEARAHAEKNGLSFIETSAL,2.54
3,AVPTDEARASAEKNGLSFIETSAL,2.84
4,AVPTDEARAPAEKNGLSFIETSAL,2.31
5,AVPTDEARAGAEKNGLSFIETSAL,2.24
6,AVPTDEARAFAERNGLSFIETSAL,2.52
7,AVPTDEARAFAENNGLSFIETSAL,2.43
8,AVPTDEARAFAEENGLSFIETSAL,2.81
9,AVPTDEARAFAESNGLSFIETSAL,2.9
10,AVPTDEARAFAECNGLSFIETSAL,2.38
11,AVPTDEARAFAEWNGLSFIETSAL,4.07
12,AVPTDEARAFAEHNGLSFIETSAL,1.77
13,AVPTDEARAFAEMNGLSFIETSAL,2.12
14,AVPTDEARAFAEYNGLSFIETSAL,2.49
15,AVPTDEARAFAETNGLSFIETSAL,2.18
16,AVPTDEARAFAEANGLSFIETSAL,2.57
17,AVPTDEARAFAEFNGLSFIETSAL,2.24
18,AVPTDEARAFAELNGLSFIETSAL,2.17
19,AVPTDEARAFAEINGLSFIETSAL,2.09
20,AVPTDEARAFAEQNGLSFIETSAL,2.67
21,AVPTDEARAFAEVNGLSFIETSAL,2.23
22,AVPTDEARAFAEPNGLSFIETSAL,2.28
23,AVPTDEARAFAEDNGLSFIETSAL,3.88
24,AVPTDEARAFAEGNGLSFIETSAL,3.15

row,Variant,protein stability index
1,AVPSDEARAFAEKNGLSFIETSAL,2.23
2,AVPRDEARAFAEKNGLSFIETSAL,2.02
3,AVPYDEARAFAEKNGLSFIETSAL,2.11
4,AVPWDEARAFAEKNGLSFIETSAL,1.93
5,AVPVDEARAFAEKNGLSFIETSAL,1.93
6,AVPQDEARAFAEKNGLSFIETSAL,2.84
7,AVPTDPARAFAEKNGLSFIETSAL,1.74
8,AVPTDQARAFAEKNGLSFIETSAL,2.52
9,AVPTDFARAFAEKNGLSFIETSAL,1.73
10,AVPTDIARAFAEKNGLSFIETSAL,1.73
11,AVPTDHARAFAEKNGLSFIETSAL,1.87
12,AVPTDKARAFAEKNGLSFIETSAL,1.8
13,AVPTDAARAFAEKNGLSFIETSAL,1.94
14,AVPTDDARAFAEKNGLSFIETSAL,2.18
15,AVPTDGARAFAEKNGLSFIETSAL,1.87
16,AVPTDYARAFAEKNGLSFIETSAL,1.88
17,AVPTDTARAFAEKNGLSFIETSAL,1.71
18,AVPTDRARAFAEKNGLSFIETSAL,2.25
19,AVPTDSARAFAEKNGLSFIETSAL,2.09
20,AVPTDCARAFAEKNGLSFIETSAL,2.13
21,AVPTDMARAFAEKNGLSFIETSAL,2.15
22,AVPTDWARAFAEKNGLSFIETSAL,2.07
23,AVPTDLARAFAEKNGLSFIETSAL,1.6
24,AVPTDVARAFAEKNGLSFIETSAL,1.83

row,Variant,protein stability index
1,AVPTDNARAFAEKNGLSFIETSAL,2.24
2,AVPTDEARAFASKNGLSFIETSAL,2.01
3,AVPTDEARAFALKNGLSFIETSAL,1.75
4,AVPTDEARAFAPKNGLSFIETSAL,1.88
5,AVPTDEARAFAWKNGLSFIETSAL,2.08
6,AVPTDEARAFANKNGLSFIETSAL,2.41
7,AVPTDEARAFAIKNGLSFIETSAL,1.39
8,AVPTDEARAFADKNGLSFIETSAL,2.54
9,AVPTDEARAFARKNGLSFIETSAL,2.55
10,AVPTDEARAFAQKNGLSFIETSAL,1.77
11,AVPTDEARAFAKKNGLSFIETSAL,1.81
12,AVPTDEARAFAHKNGLSFIETSAL,1.96
13,AVPTDEARAFATKNGLSFIETSAL,1.46
14,AVPTDEARAFAYKNGLSFIETSAL,1.74
15,AVPTDEARAFAGKNGLSFIETSAL,1.9
16,AVPTDEARAFAFKNGLSFIETSAL,1.69
17,AVPTDEARAFAAKNGLSFIETSAL,2.07
18,AVPTDEARAFAVKNGLSFIETSAL,2.3
19,AVPTDEARAFAMKNGLSFIETSAL,1.54
20,AVPTDEARAFACKNGLSFIETSAL,2.85
